Measurements taken from patent publication US20070286806A1, “Methods and Compositions for Modulating a Steroid Receptor” (Mount Sinai Hospital, priority 2004, published 2007).

Tested on: G5-Luc reporter
Experiment: Mammalian two-hybrid system with G5-Luc reporter
Assay type: cell-based, Syrian hamster
Details: SHM cells
Experimental: FIG. 2. PSF interacts with PR in vivo. (A) 293T cells were transient transfected with an expression vector for PRB and/or His-PSF for 18 hours, followed by lysis in NETN buffer with NaCl at 150 mM. Whole cell lysate (WCL) was incubated with PR antibody (C-20, Santa Cruz) or anti-His tag antibody (H-15, Santa Cruz), using protein A/G-sepharose as an absorbent. Resins were washed with NETN containing 100 mM NaCl, and bound proteins were detected by western blotting with antibodies to PR (C-20) or His-PSF (H-15). (B) Western blots of PSF (left) and PR (right) in immunoprecipitates of control mouse IgG or mouse anti-PR (AB52) or anti-PSF (B92) antibody from extracts of T47D cells. […] Luciferase activity was measured and normalized by β-galatosidase activity. […]
For immunoprecipitation of the endogenous PR and PSF, T47D cells cultured in 150 mm dishes were lysed in 800 μl NETN buffer containing 150 mM NaCl plus protease inhibitor cocktail. […] Gels were treated with Enhancer (NEN, Boston, US) dried and analyzed by autoradiography. • Cell culture and transient transfection: SHM cells and 293T cells were maintained in DMEM plus 5% FCS (Sigma) as described before (22). […] Luciferase activity was determined by using the luciferin reagent (Promega) according to manufacture's protocol. […]

B1: pM-PSF: PSF fused to C-terminus of Gal4-DBD in pM vector (protein)
chain: MKLLSSIEQACDICRLKKLKCSKEKPKCAKCLKNNWECRYSPKTKRSPLTRAHLTEVESRLERLEQLFLLIFPREDLDMILKMDSLQDIKALLTGLFVQDNVNKDAVTDRLASVETDMPLTLRQHRISATSSSEESSNKGQRQLTVSMSRDRFRSRGGGGGGFHRRGGGGGRGGLHDFRSPPPGMGLNQNRGPMGPGPGQSGPKPPIPPPPPHQQQQQPPPQQPPPQQPPPHQPPPHPQPHQQQQPPPPPQDSSKPVVAQGPGPAPGVGSAPPASSSAPPATPPTSGAPPGSGPGPTPTPPPAVTSAPPGAPPPTPPSSGVPTTPPQAGGPPPPPAAVPGPGPGPKQGPGPGGPKGGKMPGGPKPGGGPGLSTPGGHPKPPHRGGGEPRGGRQHHPPYHQQHHQGPPPGGPGGRSEEKISDSEGFKANLSLLRRPGEKTYTQRCRLFVGNLPADITEDEFKRLFAKYGEPGEVFINKGKGFGFIKLESRALAEIAKAELDDTPMRGRQLRVRFATHAAALSVRNLSPYVSNELLEEAFSQFGPIERAVVIVDDRGRSTGKGIVEFASKPAARKAFERCSEGVFLLTTTPRPVIVEPLEQLDDEDGLPEKLAQKNPMYQKERETPPRFAQHGTFEYEYSQRWKSLDEMEKQQREQVEKNMKDAKDKLESEMEDAYHEHQANLLRQDLMRRQEELRRMEELHNQEMQKRKEMQLRQEEERRRREEEMMIRQREMEEQMRRQREESYSRMGYMDPRERDMRMGGGGAMNMGDPYGSGGQKFPPLGGGGGIGYEANPGVPPATMSGSMMGSDMRTERFGQGGAGPVGGQGPRGMGPGTPAGYGRGREEYEGPNKKPRF
- luciferase activity on co-transfection with VP16-PRA and VP16-PRB (G5-Luc, ligand-independent): dramatic increase of luciferase activity
- reduction in luciferase activity compared to pM empty vector (co-transfected with G5-Luc): 70%
